In PMC2118993 (The Journal of Experimental Medicine, 1991):
Side chains are listed from the residue outwards. Ends that are not written are not given here. * marks the point of attachment. Biotin = O=C1N[C@H]2[C@H](CS[C@H]2CCCCC(=O)*)N1; Ahx = NCCCCCC(=O)O

Experiments:
[1] = target: T1, purified I-Ed class II glycoprotein (Mus musculus, UniProt P01904+P01915); format: binding
T1 sequence (P01904 26-255): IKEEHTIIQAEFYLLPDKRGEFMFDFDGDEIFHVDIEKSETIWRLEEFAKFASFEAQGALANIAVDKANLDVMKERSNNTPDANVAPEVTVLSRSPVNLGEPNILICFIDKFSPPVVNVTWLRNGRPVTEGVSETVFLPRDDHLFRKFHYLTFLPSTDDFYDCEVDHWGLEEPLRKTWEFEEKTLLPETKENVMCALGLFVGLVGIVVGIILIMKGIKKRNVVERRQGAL
T1 sequence (P01915 27-264 limits assumed): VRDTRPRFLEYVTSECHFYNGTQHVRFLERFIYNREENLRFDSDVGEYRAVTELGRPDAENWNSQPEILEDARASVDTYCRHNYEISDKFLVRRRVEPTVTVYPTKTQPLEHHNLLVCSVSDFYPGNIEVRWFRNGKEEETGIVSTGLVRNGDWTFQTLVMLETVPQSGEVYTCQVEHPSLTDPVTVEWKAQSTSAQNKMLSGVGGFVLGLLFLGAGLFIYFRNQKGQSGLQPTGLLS

[2] = tested on: purified I-Ad class II glycoprotein; format: binding, mouse; conditions: immunoassay
[3] = target: I-Ed class II MHC glycoprotein, purified (mouse (endogenous in A20 B lymphoma)); experiment: ELISA

FISEAIIHVLHSR [Myo(106-118), reference compound]
inhibition of binding of biotin-HEL(104-120) to I-Ed by unlabeled peptide ([1]; 2 μM biotin-HEL(104-120), 24 h, at higher competitor concentrations): partially inhibited

biotin-Myo(106-118): Myo(106-118) biotinylated with biotin-amidocaproate N-hydroxysuccinimide ester at the free α amino group ({Biotin-Ahx}-FISEAIIHVLHSR)
optimum pH of binding to I-Ed ([1]; 40 h at various pHs, 2 μM biotin-HEL(104-120) or 10 μM biotin-Myo(106-118)): more acidic pH | binding to I-Ed (in words) ([1]; immunoassay): weakly | binding to I-Ad (in words) [2]: binds well

{Biotin-Ahx}-GMNAWVAWRNRCK([Ahx-Biotin])GTDVY [biotin-HEL(104-120)]
Kd [3]: 2330 nM
